Measured values published in patent US20030119716A1, “Methods for screening, treating and diagnosing G-protein coupled receptor-related disorders and compositions thereof” (Wyeth, priority 2001, published 2003).

B1: RGS4: human RGS4 expressed from pCR3.1; potent GAP for both Gαq and Gαi (protein)
chain: MCKGLAGLPASCLRSAKDMKHRLGFLLQKSDSCEHNSSHNKKDKVVICQRVSQEEVKKWAESLENLISHECGLAAFKAFLKSEYSEENIDFWISCEEYKKIKSPSKLSPKAKKIYNEFISVQATKEVNLDSCTREETSRNMLEPTITCFDEAQKKIFNLMEKDSYRRFLKSRFYLDLVNPSSCGAEKQKGAKSSADCASLVPQCA
B2: RGSz1: human RGSz1 expressed from pCR3.1; highly selective for Gαz (protein)
chain: MPQLSQDNQECLQKHFSRPSIWTQFLPLFRAQRYNTDIHQITENEGDLRAVPDIKSFPPAQLPDSPAAPKLFGLLSSPLSSLARFFSHLLRRPPPEAPRRRLDFSPLLPALPAARLSRGHEELPGRLSLLLGAALALPGRPSGGRPLRPPHPVAKPREEDATAGQSSPMPQMGSERMEMRKRQMPAAQDTPGAAPGQPGAGSRGSNACCFCWCCCCSCSCLTVRNQEDQRPTIASHELRADLPTWEESPAPTLEEVNAWAQSFDKLMVTPAGRNAFREFLRTEFSEENMLFWMACEELKKEANKNIIEEKARIIYEDYISILSPKEVSLDSRVREVINRNMVEPSQHIFDDAQLQIYTLMHRDSYPRFMNSAVYKDLLQSLSEKSIEA
B3: RGS2: human RGS2 expressed from pCR3.1; selective GAP for Gαq (protein)
chain: MQSAMFLAVQHDCRPMDKSAGSGHKSEEKREKMKRTLLKDWKTRLSYFLQNSSTPGKPKTGKKSKQQAFIKPSPEEAQLWSEAFDELLASKYGLAAFRAFLKSEFCEENIEFWLACEDFKKTKSPQKLSSKARKIYTDFIEKEAPKEINIDFQTKTLIAQNIQEATSGCFTTAQKRVYSLMENNSYPRFLESEFYQDLCKKPQITTEPHAT

Tested on: c-fos SRE activation in CHO cells stably expressing D2R
Assay: SRE-luciferase reporter assay, quinpirole-stimulated c-fos SRE activation in CHO-D2R cells
Assay type: cell-based, Chinese hamster
Details: for effect of RGS transfection on quinpirole dose-response curve of SRE activation: RGS (2 μg) transfected alone, no Gα co-transfection; for reduction in SRE activation: RGS co-expressed with Gαq/i chimera

Molecule | effect of RGS transfection on quinpirole dose-response curve of SRE activation | reduction in quinpirole-stimulated SRE activation (RGS co-expressed with Gαi1, 100 nM quinpirole) | reduction in SRE activation | inhibition (attenuation) of SRE activation (RGS co-transfected with Gαi1, all quinpirole concentrations used (10 nM-100 μM)) [%] | reduction in quinpirole-stimulated SRE activation (RGS transfected without Gαi1 co-transfection, 100 nM quinpirole)
B1 | rightward shift of the dose-response curve | approximately 85% | about 60% | > 80 | approximately 40%
B2 | rightward shift of the dose-response curve | – | – | – | –
B3 | rightward shift of the dose-response curve | – | approximately 70% | – | –
